Here are results for three molecules from patent US20260132208A1 (DOMAIN THERAPEUTICS, published 2026).

The target in test [1] is T1, human CCR8 (human, UniProt P51685 1-355).
T1 construct: also called hCCR8; CC chemokine receptor 8
The test can be described thus: flow cytometry, hCCR8-transfected CHO-K1 cells. How it is done:
The same staining protocol was applied on human CCR8 transfected CHO cell line versus wild type CHO cell line, cutaneous T cell lymphoma HUT78 cell line and human activated T cell model.
Briefly, 1.10⁵ cells per well in a 96 well plate were incubated with a dilution of unconjugated anti-CCR8 mAb at 10 μg/mL then diluted at 1/3.33, 4 dilution points (during 30 min at 4° C.). […] Subsequently, cells are centrifuged (5 min at 400 g) and bound antibody is detected with F(ab′)2-Goat anti-Mouse IgG (H+L) Cross-Adsorbed Secondary Antibody, Alexa Fluor 488 (dilution 1/500) (Invitrogen by Thermofisher Scientific, Illkirch-Graffenstaden, France) or with F(ab′)₂-Goat anti-Human IgG Fc Secondary Antibody, PE (Invitrogen by Thermofisher Scientific, Illkirch-Graffenstaden, France) (dilution 1/1000) at 4° C. for 30 min. […] Bound detection antibody is quantified on a MacsQuant16 (Miltenyi, Gladbach, Germany) (B1 or B2 channel, 5000 events per acquisition). […] EC50 values were determined via nonlinear fit “log (agonist) vs.response—Variable slope (four parameters)” function of Graphpad prism. EC50 values were not constantly determined in the same experiments.
Background: In flow cytometry, cells or beads pass a laser one at a time.

In test [2] the target is T1, human CCR8. The test can be described thus: cell-based or functional assay.
For test [3], the target named is T1, human CCR8. The test can be described thus: cell-based or functional assay. The source holds these as a separate data set.
The target in another test is T2, pm1 (sulfated tyrosine(s) among Y15, Y16, Y17; which ones is not told (the underlining of Table 1 is lost in the text)).
T2 construct: also called sulfated CCR8 N-terminal peptide pm1
T2 sequence (peptide, as listed by the source): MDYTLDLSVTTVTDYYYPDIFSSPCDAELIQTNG
In words: ELISA on coated peptide [cont.]. In outline:
(§1)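 Steps: peptide coating (500 ng/ml, carbonate/bicarbonate); anti-CCR8 mAb added at 1 μg/mL and diluted 1/10; room-temperature incubation of 90 min; washes to remove unbound antibody; 15 min TMB; OD measurement.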
Background: In an ELISA, binding on a coated surface is turned into a signal by an enzyme label.

A further test addresses T3, pm8 (Y15, Y16 and Y17 sulfated).
T3 construct: also called sulfated CCR8 N-terminal peptide pm8
In words: ELISA on coated peptide [cont.]. The method, boiled down: as §1

Another test deals with T4, pm4 (sulfated tyrosine(s) among Y15, Y16, Y17; which ones is not told (the underlining of Table 1 is lost in the text)).
T4 construct: also called sulfated CCR8 N-terminal peptide pm4
T4 sequence (peptide, as listed by the source): as above
In words: ELISA on coated peptide [cont.]. The method, boiled down: as §1

The target in a further test is T5, pm5 (Y15 and Y17 sulfated; Y16 not sulfated).
T5 construct: also called sulfated CCR8 N-terminal peptide pm5
T5 sequence (peptide, as listed by the source): as above
In words: ELISA on coated peptide [cont.]. In outline: as §1

In the next test the target is T6, pm6 (Y16 and Y17 sulfated; Y15 not sulfated).
T6 construct: also called sulfated CCR8 N-terminal peptide pm6
T6 sequence (peptide, as listed by the source): as above
In words: ELISA on coated peptide [cont.]. The method, boiled down:
as §1

For a further test, the target named is T7, pm3 (Y17 sulfated; Y15 and Y16 not sulfated).
T7 construct: also called sulfated CCR8 N-terminal peptide pm3
T7 sequence (peptide, as listed by the source): as above
In words: ELISA on coated peptide [cont.]. In outline: as §1

Test [4] concerns the target T8, human CCR8 with a SNAP-tag at the N-terminus (human, UniProt P51685 1-355, SNAP-tag labelled covalently with Lumi4-Terbium). In words: cell-based or functional assay.
The target in test [5] is T8, human CCR8 with a SNAP-tag at the …. In words: HTRF Tag-lite, inhibition of hCCL1-AF647 binding to SNAP-hCCR8 on HEK-293 cells. How it is done:
The inhibition of CCL1 binding to hCCR8 was evaluated with the Tag-Lite® technology from Cisbio (Revvity). Human CCR8 is engineered with a SNAP-tag at the N-terminus of the GPCR. hCCR8 SNAP-tag is transiently transfected on HEK-293 cell line using FuGene® (Promega, Madison, WI, USA). 48 hours after transfection, cells are labeled with the substrate Lumi4-Terbium® (Cisbio, Codolet, France) which covalently reacts with the SNAP-tag, for 1 h at 37° C. Thawed or freshly labeled cells are plated in a 384 low volume white plate (GREINER Bio-One, Courtaboeuf, France) (10000 cells/well/10 μl). […] The Kd was previously obtained in a saturation binding assay on the same cells. […] The plate is next incubated at 21° C. for 2 h. Detection of HTRF signal is performed on the multiplate reader EnVision (PerkinElmer, Waltham, MA, USA). The HTRF (665/620) ratio is calculated by EnVision software, the data exported are considered as the total binding. The specific binding is calculated then by subtracting the non-specific signal from the total binding. The Ki and IC₅₀ are calculated using the “One site-Fit Ki” and “One site-FitlogIC50” from GraphPad Prism 9 (Graphpad Software, San Diego, CA, USA), respectively.
On the technique in general: TR-FRET usually uses a lanthanide donor and a delayed reading to cut background.

T3 sequence (peptide, as listed by the source): as above

B1: anti-CCR8 mAb 1-25 (antibody, human IgG1, kappa, V domains shown)
VH: QVQLVESGGGVVQPGRSLRLSCAASGFTFSNYRMHWVRQAPGKGLEWIAVIKVKSDNYGANYADSVKGRFTISRDNSKNTLYLQMNSLRAEDTAVYYCSSPTYPGSSGFAYWGQGTLVTVSS
VL: DIQMTQSPSSLSASVGDRVTITCRASQDISNYLNWYQQKPDGTVKLLIYYTSRLHTGVPSRFSGSGSGTDYTLTISNLQQEDIATYFCQQGNKFPPTFGGGTKVEINR
notes: Humanized mAb, human IgG1 / kappa
Turning to B1, the response with human CCR8 [1] was half-maximal at 0.1 nM (EC50). Also, in the test with human CCR8 [2], the “ADCC % max lysis, HUT78 targets, NK donor 3” value was 16%; the “ADCC % max lysis, HUT78 targets, NK donor 4” value was determined as 19%; the “ADCC EC50, HUT78 targets, NK donor 3” value worked out at 0.349 nM; the “ADCC EC50, HUT78 targets, NK donor 4” value is 1.91 nM.

B2: anti-CCR8 mAb 1-20 (antibody, human IgG1, kappa)
heavy: not shown
light: DIVMTQAAPSLSVTPGESASISCTSSKSLLHSNGNTYLYWFLQKPGQSPQLLIYRMSNLASGVPDRFSGSGSGTAFTLKISRVEAEDVGVYYCMQHREYPFTFGSGTKLEIKRTVAAPSVFIFPPSDEQLKSGTASVVCLLNNFYPREAKVQWKVDNALQSGNSQESVTEQDSKDSTYSLSSTLTLSKADYEKHKVYACEVTHQGLSSPVTKSFNRGEC
notes: as for B1
B2: the “IC50 (read off the curve), inhibition of hCCL1 induced Gi2 signaling, No Wash-out” value with human CCR8 [3] is about 0.02 µg/mL. The “IC50 (read off the curve), inhibition of hCCL1 induced Gi2 signaling, Wash-out (6 h)” value with human CCR8 [3] is about 0.06 µg/mL. Also, the binding result with pm1, with pm8, with pm4, in the test with pm5, with pm6 and with pm3 was “binds” each time.

B3: anti-CCR8 mAb 1-22 (antibody, human IgG1, kappa, V domains shown)
VH: EVQLLESGGGLVQPGGSLRLSCAASGFTFNAYAMNWVRQAPGKGLEWVARIRSKSNDYATYYGDSVKGRFTISRDNSKNTLYLQMNSLRAEDTAVYYCVRGREAYYRYDGGYYAMDVWGQGTTVTVSS
VL: DIVMTQSPLSLPVTPGEPASISCRSSKSLLHSNGNTYLYWFLQKPGQSPQLLIYRVSNLASGVPDRFSGSGSGTDFTLKISRVEAEDVGVYYCMQHREYPFTFGQGTKLEIKR
notes: as for B1
In the case of B3, in test [4], the “% hCCR8 internalization with CCL1 300 nM, mAb 1 µg/ml (HTRF)” value stood at 139%. Further, the “% hCCR8 internalization with CCL1 300 nM, mAb 10 µg/ml (HTRF)” value in [4] came to 52%. Also, the half-inhibitory concentration (IC50) (as a rule, the point on the concentration scale where inhibition reaches its midpoint) in [5] is 0.1 to 1 nM. In addition, the binding result with pm1, with pm8, with pm4, with pm5, with pm6 and in the test with pm3 was “binds” throughout.
